Assay results: patent US12460006B2, “Antibodies against integrin alpha 11 beta 1” (Momenta Pharmaceuticals, Inc., priority 2019, dated 2025)

T1: α11β1 expressed on the surface of CHO-K1 cells (Homo sapiens, UniProt Q9UKX5)
T1 construct: expressed in transfected cells; host or cells: CHO-K1
T1 sequence (Q9UKX5 23-1188): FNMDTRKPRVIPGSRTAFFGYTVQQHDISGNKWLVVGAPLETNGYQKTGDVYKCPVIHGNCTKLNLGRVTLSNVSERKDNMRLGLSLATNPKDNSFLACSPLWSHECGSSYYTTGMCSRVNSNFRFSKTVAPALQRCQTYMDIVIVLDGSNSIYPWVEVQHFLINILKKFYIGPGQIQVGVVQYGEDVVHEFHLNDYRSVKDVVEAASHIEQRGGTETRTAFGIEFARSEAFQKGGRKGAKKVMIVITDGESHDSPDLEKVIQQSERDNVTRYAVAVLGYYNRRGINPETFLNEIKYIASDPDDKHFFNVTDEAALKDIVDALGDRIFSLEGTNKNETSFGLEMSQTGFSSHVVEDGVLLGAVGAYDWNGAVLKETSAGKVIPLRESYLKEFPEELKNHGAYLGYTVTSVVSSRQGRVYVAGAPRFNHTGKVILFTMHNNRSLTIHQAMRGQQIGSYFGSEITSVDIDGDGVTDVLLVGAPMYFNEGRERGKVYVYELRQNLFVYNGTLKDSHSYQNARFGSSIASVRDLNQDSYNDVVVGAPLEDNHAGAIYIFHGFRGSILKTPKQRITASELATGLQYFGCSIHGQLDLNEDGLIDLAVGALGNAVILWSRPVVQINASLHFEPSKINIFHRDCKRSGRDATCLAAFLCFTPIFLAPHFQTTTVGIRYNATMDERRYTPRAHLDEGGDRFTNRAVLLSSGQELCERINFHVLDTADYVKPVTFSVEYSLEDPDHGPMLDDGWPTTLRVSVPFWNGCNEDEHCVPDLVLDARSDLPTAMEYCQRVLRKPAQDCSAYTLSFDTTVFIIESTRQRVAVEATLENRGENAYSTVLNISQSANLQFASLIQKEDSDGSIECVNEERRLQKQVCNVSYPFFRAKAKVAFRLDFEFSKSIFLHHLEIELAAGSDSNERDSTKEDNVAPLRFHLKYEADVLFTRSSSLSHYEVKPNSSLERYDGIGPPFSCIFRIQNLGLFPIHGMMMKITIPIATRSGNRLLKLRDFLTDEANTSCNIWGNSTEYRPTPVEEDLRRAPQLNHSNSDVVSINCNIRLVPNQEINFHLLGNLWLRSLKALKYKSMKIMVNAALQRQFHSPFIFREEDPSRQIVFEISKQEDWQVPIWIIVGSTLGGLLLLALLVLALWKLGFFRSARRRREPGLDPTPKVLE


Experiments:
Settings in all cases: binding Yes/No
[1] = molecular target: T1, α11β1 expressed on the surface of CHO-K1 cells; test: FACS antibody binding to CHO-K1 cells expressing human α11
Procedure, shortened: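 Wild-type or human α11-transfected CHO-K1 cells (endogenous β1) were incubated with antibody at varied concentrations for 30 min at 4° C, then secondary antibody (1:100) 30 min at 4° C. Cells were PFA-fixed and read by flow cytometry; binding EC50 estimated from FACS data.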

mouse α11β1 = mouse α11β1 (Mus musculus, UniProt P61622); test: ELISA binding to recombinant mouse α11β1
mouse α11β1, sequence (P61622 23-1141 limits assumed): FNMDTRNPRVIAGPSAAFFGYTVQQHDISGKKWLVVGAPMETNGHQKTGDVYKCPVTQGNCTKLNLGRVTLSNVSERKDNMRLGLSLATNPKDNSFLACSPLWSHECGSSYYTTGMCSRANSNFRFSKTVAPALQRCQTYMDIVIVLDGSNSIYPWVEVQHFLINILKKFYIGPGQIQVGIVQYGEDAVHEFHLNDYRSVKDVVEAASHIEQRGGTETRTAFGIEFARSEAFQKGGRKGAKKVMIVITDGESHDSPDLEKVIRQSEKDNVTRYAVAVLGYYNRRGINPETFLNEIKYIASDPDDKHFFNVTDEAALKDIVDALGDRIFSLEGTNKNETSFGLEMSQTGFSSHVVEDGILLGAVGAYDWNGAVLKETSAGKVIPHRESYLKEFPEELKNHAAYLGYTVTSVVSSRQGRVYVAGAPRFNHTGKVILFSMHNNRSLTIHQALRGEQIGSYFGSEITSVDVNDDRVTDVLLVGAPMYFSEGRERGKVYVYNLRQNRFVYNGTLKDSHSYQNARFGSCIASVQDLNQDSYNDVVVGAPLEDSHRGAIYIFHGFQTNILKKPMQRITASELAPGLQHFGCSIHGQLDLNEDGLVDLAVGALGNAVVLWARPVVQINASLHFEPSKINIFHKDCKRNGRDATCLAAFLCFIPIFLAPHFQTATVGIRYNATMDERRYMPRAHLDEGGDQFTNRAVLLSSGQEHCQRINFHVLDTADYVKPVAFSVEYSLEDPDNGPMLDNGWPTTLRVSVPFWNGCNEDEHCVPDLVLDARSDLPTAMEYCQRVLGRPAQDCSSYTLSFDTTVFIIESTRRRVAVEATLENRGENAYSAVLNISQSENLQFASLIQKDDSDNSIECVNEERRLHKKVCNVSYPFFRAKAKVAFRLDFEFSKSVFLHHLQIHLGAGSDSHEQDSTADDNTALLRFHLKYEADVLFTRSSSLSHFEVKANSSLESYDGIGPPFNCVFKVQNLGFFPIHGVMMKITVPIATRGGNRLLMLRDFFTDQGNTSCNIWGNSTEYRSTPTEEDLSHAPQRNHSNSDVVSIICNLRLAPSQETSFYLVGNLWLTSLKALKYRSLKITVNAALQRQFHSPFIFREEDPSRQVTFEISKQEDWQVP
mouse α11β1, sequence (P09055 21-728 partner limits assumed): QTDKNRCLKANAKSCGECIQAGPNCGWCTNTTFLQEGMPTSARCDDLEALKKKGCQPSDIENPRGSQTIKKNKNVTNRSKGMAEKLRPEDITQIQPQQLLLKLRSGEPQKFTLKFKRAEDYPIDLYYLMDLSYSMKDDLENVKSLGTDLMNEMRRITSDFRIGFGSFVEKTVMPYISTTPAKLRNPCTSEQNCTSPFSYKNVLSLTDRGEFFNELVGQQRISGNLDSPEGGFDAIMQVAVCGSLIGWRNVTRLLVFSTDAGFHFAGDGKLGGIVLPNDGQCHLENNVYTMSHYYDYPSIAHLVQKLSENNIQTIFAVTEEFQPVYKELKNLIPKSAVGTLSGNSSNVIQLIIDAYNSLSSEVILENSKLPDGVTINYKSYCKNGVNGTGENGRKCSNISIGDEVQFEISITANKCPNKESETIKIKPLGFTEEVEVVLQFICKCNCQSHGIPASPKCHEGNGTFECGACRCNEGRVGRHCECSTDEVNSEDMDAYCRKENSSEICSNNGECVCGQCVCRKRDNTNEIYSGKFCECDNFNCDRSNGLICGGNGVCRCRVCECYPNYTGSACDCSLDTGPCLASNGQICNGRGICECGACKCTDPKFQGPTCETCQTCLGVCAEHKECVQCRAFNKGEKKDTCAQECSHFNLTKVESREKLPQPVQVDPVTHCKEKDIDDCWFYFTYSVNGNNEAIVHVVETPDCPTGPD
Procedure, shortened: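 Antibodies at a range of concentrations bind plate-immobilized recombinant α11β1 (human or mouse, 0.25 μg/mL coating) for 1 h at room temperature.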

myofibroblasts (MF) = test: FACS antibody binding to myofibroblasts; parameters: species or system human
Procedure, shortened: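 Human pulmonary fibroblasts, serum-starved 24 h then TGFβ-1-treated 72 h to give myofibroblasts, were blocked with heat-inactivated FBS and stained with anti-α11 antibodies, then PE secondary, 30 min each at 4 °C, before 1% PFA fixation. Binding read by flow cytometry as PE geometric MFI of single cells.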

Row | Molecule | CHO-K1 FACS [1] | Murine α11β1 ELISA (mouse α11β1) | MF FACS (myofibroblasts (MF))
1 | 5A7: rabbit anti-α11β1 mAb; heavy chain SEQ ID NO: 193, light chain SEQ ID NO: 194 (antibody) heavy: METGLRWLLLVAVLKGVQCQSLEESGGGLVQPEGSLTLACTASGFSFSSYYYICWVRQAPGTGLEWIGCINTGSDDTHYASWLKGRFTFSKASSTTLTLQMTSLTAADTATYFCARSSGSSDDAYDLWGPGTLVTVSSGQPKAPSVFPLAPCCGDTPSSTVTLGCLVKGYLPEPVTVTWNSGTLTNGVRTFPSVRQSSGLYSLSSVVSVTSSSQPVTCNVAHPATNTKVDKTVAPSTCSKPMCPPPELPGGPSVFIFPPKPKDTLMISRTPEVTCVVVDVSQDDPEVQFTWYINNEQVRTARPPLREQQFNSTIRVVSTLPIAHQDWLRGKEFKCKVHNKALPAPIEKTISKARGQPLEPKVYTMGPPREELSSRSVSLTCMINGFYPSDISVEWEKNGKAEDNYKTTPTVLDSDGSYFLYSKLSVPTSEWQRGDVFTCSVMHEALHNHYTQKSISRSPGK light: MDTRAPTQLLGLLLLWLPGARCDVVMTQTPASVSEPVGGAVTIKCQASQSIGSNLAWYQHKPGQPPKLLIYFASSLASGVSSRFKGGRSGTQFTLTISDLECADAATYYCHCTYYPLSYVTFGGGTEVVVKGDPVAPTVLIFPPAADQVATGTVTIVCVANKYFPDVTVTWEVDGTTQTTGIENSKTPQNSADCTYNLSSTLTLTSTQYNSHKEYTCKVTQGTTSVVQSFNRGDC | Yes | No | Yes
2 | 10-L15: mouse anti-α11β1 mAb; VH SEQ ID NO: 119, VL SEQ ID NO: 120 (antibody, V domains shown) VH: QVQLQQSGPELVRPGASVKMSCKASGYTFTSYWMHWVKQRPGQGLEWIGMIDPSNSETWLNQKFKDKATLNVDKSSNTAYMQLSSLTSEDSAVYYCARYDGYYDYWGQGTTLTVSS VL: NIVLTQSPASLAVSLGQRATISCRASESVDSYGNSFMHWYQQKPGQPPKLLIYLASNVESGVPARFSGSGSRTDFTLTIDPVEADDAATYYCQQNNEDPWTFGGGTKLEIK | No | Yes | No
3 | 3B1: rabbit anti-α11β1 mAb; heavy chain SEQ ID NO: 201, light chain SEQ ID NO: 202 (antibody) heavy: METGLRWLLLVAVLKGVQCQEQLEESGGGLVKPEGSLTLTCKASGFDLSSGYDMCWVRQAPGKGLEWIACIYADYSGSTYYASWVNGRFTISSSTSLNTVDLKMTSLTAADTATYFCARGATGNGGYGYYFNLWGPGTLVTVSSGQPKAPSVFPLAPCCGDTPSSTVTLGCLVKGYLPEPVTVTWNSGTLTNGVRTFPSVRQSSGLYSLSSVVSVTSSSQPVTCNVAHPATNTKVDKTVAPSTCSKPMCPPPELPGGPSVFIFPPKPKDTLMISRTPEVTCVVVDVSQDDPEVQFTWYINNEQVRTARPPLREQQFNSTIRVVSTLPIAHQDWLRGKEFKCKVHNKALPAPIEKTISKARGQPLEPKVYTMGPPREELSSRSVSLTCMINGFYPSDISVEWEKNGKAEDNYKTTPTVLDSDGSYFLYSKLSVPTSEWQRGDVFTCSVMHEALHNHYTQKSISRSPGK light: MDTRAPTQLLGLLLLWLPGARCADIVMTQTPASVSEPVGGTVTIKCQASQNINSGLAWYQQKPGQPPKLLIYKASTLASGVSSRFKGSGSGTEFTLTISDLECADAATYYCQTYYYSSSSSDNAFGGGTEVVVKGDPVAPTVLIFPPAADQVATGTVTIVCVANKYFPDVTVTWEVDGTTQTTGIENSKTPQNSADCTYNLSSTLTLTSTQYNSHKEYTCKVTQGTTSVVQSFNRGDC | Yes | No | Yes
